The results in this text go back to US20240309109A1 (MorphoSys, published 2024).

Assay [1] addresses T1, human CD38 on cells (human, UniProt P28907 1-300). Nature of the assay: cell-based or functional assay.
Assay [2] concerns the target T2, human CD38 Fc-fusion aa 45-300 (human, UniProt P28907 45-300).
T2 construct: Expressed in HEK293 behind a human Vkappa leader, which is left out here; also called CD38-Fc fusion protein; CD38 Fc-Fusion protein
Nature of the assay: ELISA on CD38 Fc-fusion protein, IgG format.

Assay [3] has as its target T1, human CD38 on cells. Nature of the assay: FACS Scatchard on OPM2 cells, mean from 2 measurements.
The target in assay [4] is T1, human CD38 on cells. Nature of the assay: FACS Scatchard, IgG1 on Raji cells.
In assay [5] the target is T1, human CD38 on cells. The assay can be described thus: FACS Scatchard on RPMI8226 cells, single measurement.
Procedure: All stainings were performed in round bottom 96-well culture plates (Nalge Nunc) with 2×10⁵ cells per well. Cells were incubated with Fab or IgG antibodies at the indicated concentrations in 50 μl FACS buffer (PBS, 3% FCS, 0.02% NaN₃) for 40 min at 4° C. Cells were washed twice and then incubated with R-Phycoerythrin (PE) conjugated goat-anti-human or goat-anti-mouse IgG (H+L) F(ab′)2 (Jackson Immuno Research), diluted 1:200 in FACS buffer, for 30 min at 4° C. Cells were again washed, resuspended in 0.3 ml FACS buffer and then analyzed by flow cytometry in a FACSCalibur (Becton Dickinson, San Diego, CA).
For assay [6], the target named is T1, human CD38 on cells. Nature of the assay: FACS Scatchard on OPM2 cells, IgG format; * different experiment.
Assay [7] addresses T1, human CD38 on cells. The assay can be described thus: FACS Scatchard on CCRF-CEM cells, single measurement.
In assay [8] the target is T1, human CD38 on cells. The assay can be described thus: FACS Scatchard on OPM2 cells, IgG format.

B1: MOR03087 IgG1 (antibody, V domains shown)
VH: QVQLVESGGGLVQPGGSLRLSCAASGFTFSSYYMNWVRQAPGKGLEWVSGISGDPSNTYYADSVKGRFTISRDNSKNTLYLQMNSLRAEDTAVYYCARDLPLVYTGFAYWGQGTLVTVSS
VL: DIELTQPPSVSVAPGQTARISCSGDNLRHYYVYWYQQKPGQAPVLVIYGDSKRPSGIPERFSGSNSGNTATLTISGTQAEDEADYYCQTYTGGASLVFGGGTKLTVLG
Take B1: the “ADCC RPMI8226 EC50” value with human CD38 on cells [1] stood at 0.14 nM. Moreover, in the assay with human CD38 on cells [1], the “CDC CHO EC50” value worked out at 3.4 nM. Besides, the “ELISA CD38 Fc-Fusion protein (% Reactivity of MOR03087)” value in assay [2] turned out to be 100%. Besides, the EC50 was 17.5 nM with human CD38 on cells [3]; 6.3 nM with human CD38 on cells [5]; 17.4 nM with human CD38 on cells [6]; 14.7 nM with human CD38 on cells [7]; 5.7 nM with human CD38 on cells [8]. Binding in the assay with human CD38 on cells [4] was put at a Kd of 5 nM.
